Assay results taken from patent US20130209454A1 (CALIFORNIA INSTITUTE OF TECHNOLOGY, published 2013).

Tests used:
Assay in all cases: cell-based or functional assay
[1] = biological target: HIV-1 Env of strain Ce0682_E4 (HIV-1)
[2] = biological target: HIV-1 Env of strain WITO4160.33 (HIV-1)
[3] = biological target: HIV-1 Env of strain Du172.17 (HIV-1)
[4] = biological target: HIV-1 Env of strain C2101.c01 (HIV-1)
[5] = biological target: HIV-1 Env of strain CAAN5342.A2 (HIV-1)
[6] = biological target: HIV-1 Env of strain C1080.c03 (HIV-1)
[7] = biological target: HIV-1 Env of strain 3817.v2.c59 (HIV-1)
[8] = biological target: HIV-1 Env of strain CNE21 (HIV-1)
[9] = biological target: HIV-1 Env of strain AC10.0.29 (HIV-1)
[10] = biological target: HIV-1 Env of strain P1981_C5_3 (HIV-1)
[11] = biological target: HIV-1 Env of strain CNE53 (HIV-1)
[12] = biological target: HIV-1 Env of strain 3016.v5.c45 (HIV-1)
[13] = biological target: HIV-1 Env of strain 3718.v3.c11 (HIV-1)
[14] = biological target: HIV-1 Env of strain Du156.12 (HIV-1)
[15] = biological target: HIV-1 Env of strain REJO4541.67 (HIV-1)
[16] = biological target: HIV-1 Env of strain ZM233M.PB6 (HIV-1)
[17] = biological target: HIV-1 Env of strain 1054_07_TC4_1499 (HIV-1)
[18] = biological target: HIV-1 Env of strain 231966.c02 (HIV-1)
[19] = biological target: HIV-1 Env of strain TRO.11 (HIV-1)
[20] = biological target: HIV-1 Env of strain X1193_c1 (HIV-1)
[21] = biological target: HIV-1 Env of strain 211-9 (HIV-1)
[22] = biological target: HIV-1 Env of strain ZM135M.PL10a (HIV-1)
[23] = biological target: HIV-1 Env of strain ZM247v1(Rev-) (HIV-1)
[24] = biological target: HIV-1 Env of strain QH0692.42 (HIV-1)
[25] = biological target: HIV-1 Env of strain ZM249M.PL1 (HIV-1)
[26] = biological target: HIV-1 Env of strain 1056_10_TA11_1826 (HIV-1)
[27] = biological target: HIV-1 Env of strain Q23.17 (HIV-1)
[28] = biological target: HIV-1 Env of strain T278-50 (HIV-1)
[29] = biological target: HIV-1 Env of strain CAP210.2.00.E8 (HIV-1)
[30] = biological target: HIV-1 Env of strain T255-34 (HIV-1)
[31] = biological target: HIV-1 Env of strain Ce703010054_2A2 (HIV-1)
[32] = biological target: HIV-1 Env of strain X1254_c3 (HIV-1)
[33] = biological target: HIV-1 Env of strain 0330.v4.c3 (HIV-1)
[34] = biological target: HIV-1 Env of strain 6480.v4.c25 (HIV-1)
[35] = biological target: HIV-1 Env of strain Q461.e2 (HIV-1)
[36] = biological target: HIV-1 Env of strain C3347.c11 (HIV-1)
[37] = biological target: HIV-1 Env of strain Q842.d12 (HIV-1)
[38] = biological target: HIV-1 Env of strain 89-F1_2_25 (HIV-1)
[39] = biological target: HIV-1 Env of strain ZM109F.PB4 (HIV-1)
[40] = biological target: HIV-1 Env of strain Q259.d2.17 (HIV-1)
[41] = biological target: HIV-1 Env of strain ZM197M.PB7 (HIV-1)
[42] = biological target: HIV-1 strain TRO.11 envelope (gp120) (HIV-1)
[43] = biological target: HIV-1 strain QH0692.42 envelope (gp120) (HIV-1)

B1: NIH45-46 IgG (antibody, V domains shown)
VH: QVRLSQSGGQMKKPGESMRLSCRASGYEFLNCPINWIRLAPGRRPEWMGWLKPRGGAVNYARKFQGRVTMTRDVYSDTAFLELRSLTSDDTAVYFCTRGKYCTARDYYNWDFEHWGRGAPVTVSS
VL: EIVLTQSPATLSLSPGETAIISCRTSQSGSLAWYQQRPGQAPRLVIYSGSTRAAGIPDRFSGSRWGADYNLSISNLESGDFGVYYCQQYEFFGQGTKVQVDI
neutralization IC50 [1]: 0.054 µg/mL | neutralization IC50 [2]: 0.06 µg/mL | neutralization IC50 [3]: > 50 µg/mL | neutralization IC50 [4]: 4.24 µg/mL | neutralization IC50 [5]: 0.15 µg/mL | neutralization IC50 [6]: 2.48 µg/mL | neutralization IC50 [7]: > 50 µg/mL | neutralization IC50 [8]: 6.01 µg/mL | neutralization IC50 [9]: 0.56 µg/mL | neutralization IC50 [10]: 0.08 µg/mL | neutralization IC50 [11]: 0.008 µg/mL | neutralization IC50 [12]: > 50 µg/mL | neutralization IC50 [13]: 19.6 µg/mL | neutralization IC50 [14]: 0.02 µg/mL | neutralization IC50 [15]: 0.014 µg/mL | neutralization IC50 [16]: 2.5 µg/mL | neutralization IC50 [17]: 0.113 µg/mL | neutralization IC50 [18]: 1.64 µg/mL | neutralization IC50 [19]: 1.61 µg/mL | neutralization IC50 [20]: 0.021 µg/mL | neutralization IC50 [21]: > 50 µg/mL | neutralization IC50 [22]: 0.59 µg/mL | neutralization IC50 [23]: 2.94 µg/mL | neutralization IC50 [24]: 0.72 µg/mL | neutralization IC50 [25]: 0.017 µg/mL | neutralization IC50 [26]: 0.094 µg/mL | neutralization IC50 [27]: 0.14 µg/mL | neutralization IC50 [28]: > 50 µg/mL | neutralization IC50 [29]: > 50 µg/mL | neutralization IC50 [30]: 0.71 µg/mL | neutralization IC50 [31]: 0.159 µg/mL | neutralization IC50 [32]: 0.032 µg/mL | neutralization IC50 [33]: 0.09 µg/mL | neutralization IC50 [34]: 0.032 µg/mL | neutralization IC50 [35]: 0.076 µg/mL | neutralization IC50 [36]: 0.029 µg/mL | neutralization IC50 [37]: 0.031 µg/mL | neutralization IC50 [38]: > 50 µg/mL | neutralization IC50 [39]: 0.095 µg/mL | neutralization IC50 [40]: 0.043 µg/mL | neutralization IC50 [41]: 0.15 µg/mL

B2: NIH45-46 IgG (antibody, V domains shown)
VH: QVRLSQSGGQMKKPGESMRLSCRASGYEFLNCPINWIRLAPGRRPEWMGWLKPRGGAVNYARKFQGRVTMTRDVYSDTAFLELRSLTSDDTAVYFCTRGKYCTARDYYNWDFEHWGRGAPVTVSS
VL: EIVLTQSPATLSLSPGETAIISCRTSQSGSLAWYQQRPGQAPRLVIYSGSTRAAGIPDRFSGSRWGADYNLSISNLESGDFGVYYCQQYEFFGQGTKVQVDI
neutralization IC50 [42]: 1.9 µg/mL | neutralization IC50 [43]: 0.7 µg/mL
